± gives the standard error. This sample holds only a part of the variants without activity.
B1: glmS ribozyme (parent)
chain: AUAAAAGCGCCAGAACUACAGAAAUGUAGUUGACGAGGAGGAGGUUUAUCGAAUUUUCGGCGGAUGCCUCCAAA

Columns and labels:
Settings in all cases: with glucosamine-6-phosphate
glucosamine-6-phosphate [1] = variants of: B1; test: self-cleavage kobs at 160 uM GlcN6P; higher = faster cleavage; RNA array
Method in brief: (§1)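 Barcoded ribozyme variants were transcribed in situ on sequenced MiSeq chips by E. coli RNA polymerase. At 37 °C, a hybridised Cy3 probe tracked them while glucosamine-6-phosphate (40 μM to 10 mM) in HEPES/KCl/Mg(OAc)2 buffer flowed in and tiles were imaged over ~14 h. Per-tile medians of signals normalised to baseline and to non-cleaving reference variants were fit to one- or two-exponential decays, giving kobs. kcat and KM came from weighted Michaelis–Menten fits across concentrations.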

glucosamine-6-phosphate [2] = variants of: B1; test: self-cleavage kobs at 640 uM GlcN6P; higher = faster cleavage; RNA array
Method in brief: as §1

glucosamine-6-phosphate [3] = variants of: B1; test: self-cleavage kobs at 2500 uM GlcN6P; higher = faster cleavage; RNA array
Method in brief: as §1

glucosamine-6-phosphate [4] = variants of: B1; test: self-cleavage kobs at 10000 uM GlcN6P; higher = faster cleavage; RNA array
Method in brief: as §1

Row | Variant | self-cleavage kobs at 160 uM GlcN6P (glucosamine-6-phosphate [1]) | self-cleavage kobs at 640 uM GlcN6P (glucosamine-6-phosphate [2]) | self-cleavage kobs at 2500 uM GlcN6P (glucosamine-6-phosphate [3]) | self-cleavage kobs at 10000 uM GlcN6P (glucosamine-6-phosphate [4])
1 | U31C G43U A48U U55A | < 1e-05 s⁻¹ | < 1e-05 s⁻¹ | < 1e-05 s⁻¹ | –
2 | A14G G32A G38U | < 1e-05 s⁻¹ | – | < 1e-05 s⁻¹ | < 1e-05 s⁻¹
3 | A14G G29U A52C C68A | 0.000918 ± 0.00046 s⁻¹ | 0.000113 ± 4.7e-05 s⁻¹ | – | –
4 | G66A U69G | 8.36e-05 ± 2.3e-05 s⁻¹ | 0.000427 ± 0.0001 s⁻¹ | 0.00012 ± 2.1e-05 s⁻¹ | 4.74e-05 ± 1.7e-05 s⁻¹
5 | C16G U47A C50U A53G | < 1e-05 s⁻¹ | – | – | –
6 | A6G C10U U57C | < 1e-05 s⁻¹ | – | – | –
7 | A42C U45G | < 1e-05 s⁻¹ | < 1e-05 s⁻¹ | – | –
8 | C8U A14U U57C G59U | – | < 1e-05 s⁻¹ | – | –
9 | G41A G44U C70A | – | < 1e-05 s⁻¹ | – | –
10 | U31C G60U C67G | – | < 1e-05 s⁻¹ | < 1e-05 s⁻¹ | –
11 | G37A G41A A48G | – | < 1e-05 s⁻¹ | < 1e-05 s⁻¹ | –
12 | G7A A15U U56G C58A | – | < 1e-05 s⁻¹ | – | –
13 | C16U A33C | – | 9.7e-05 ± 3.1e-05 s⁻¹ | 8.5e-05 ± 2.1e-05 s⁻¹ | 0.000247 ± 3.7e-05 s⁻¹
14 | C10A A12C G66U | – | < 1e-05 s⁻¹ | < 1e-05 s⁻¹ | –
15 | A33U U57G C68G | – | 0.000105 ± 2.8e-05 s⁻¹ | 0.000205 ± 7e-05 s⁻¹ | –
16 | U47C C50A U69G | – | 5.61e-05 ± 2.5e-05 s⁻¹ | 9.43e-05 ± 2.6e-05 s⁻¹ | –
17 | C10A C61G A64G C68G | – | 9.09e-05 ± 4.3e-05 s⁻¹ | – | –
18 | U17C G44U U47C | – | < 1e-05 s⁻¹ | – | –
19 | G13A A53G G66A | – | 6.41e-05 ± 2.2e-05 s⁻¹ | – | –
20 | G32C G51C A64G C70U | – | < 1e-05 s⁻¹ | – | –
21 | C34U A39U | – | < 1e-05 s⁻¹ | < 1e-05 s⁻¹ | < 1e-05 s⁻¹
22 | A12G A14U A42U U54A C70G | – | < 1e-05 s⁻¹ | – | –
23 | A52C A53G A64U | – | < 1e-05 s⁻¹ | < 1e-05 s⁻¹ | –

Row | Variant | self-cleavage kobs at 160 uM GlcN6P (glucosamine-6-phosphate [1]) | self-cleavage kobs at 640 uM GlcN6P (glucosamine-6-phosphate [2]) | self-cleavage kobs at 2500 uM GlcN6P (glucosamine-6-phosphate [3]) | self-cleavage kobs at 10000 uM GlcN6P (glucosamine-6-phosphate [4])
24 | C11G G41U A48G A52C | – | < 1e-05 s⁻¹ | < 1e-05 s⁻¹ | –
25 | C16G A39G C71A | – | 0.000265 ± 9.1e-05 s⁻¹ | 0.000286 ± 0.00013 s⁻¹ | –
26 | G59C G66C | – | < 1e-05 s⁻¹ | – | < 1e-05 s⁻¹
27 | G9C A64U G66C C70U C71U | – | < 1e-05 s⁻¹ | – | –
28 | A6U A36C G51C | – | < 1e-05 s⁻¹ | < 1e-05 s⁻¹ | –
29 | U30A U31A G66A | – | 0.000765 ± 0.00037 s⁻¹ | – | –
30 | U30C A53U U57G A64C U69G | – | 0.000129 ± 3.2e-05 s⁻¹ | 0.000128 ± 5.2e-05 s⁻¹ | –
31 | G32C A42U A53G U57A A64G | – | < 1e-05 s⁻¹ | < 1e-05 s⁻¹ | –
32 | U30G A39G G41U A48G U69C | – | < 1e-05 s⁻¹ | < 1e-05 s⁻¹ | < 1e-05 s⁻¹
33 | C11G G41C U45G | – | < 1e-05 s⁻¹ | – | –
34 | G62C A64U G66U | – | < 1e-05 s⁻¹ | < 1e-05 s⁻¹ | –
35 | C16U G60U C61G | – | < 1e-05 s⁻¹ | – | –
36 | A14C U56G U57A C71A | – | 8.95e-05 ± 2.3e-05 s⁻¹ | 5.04e-05 ± 2e-05 s⁻¹ | –
37 | G29A U45G | – | 0.000156 ± 4.7e-05 s⁻¹ | 0.000503 ± 0.00012 s⁻¹ | –
38 | C34G G37C | – | < 1e-05 s⁻¹ | – | < 1e-05 s⁻¹
39 | A14C U49G U54G C68G | – | 7.91e-05 ± 3.6e-05 s⁻¹ | – | –
40 | G32A G43A G63A A64G | – | < 1e-05 s⁻¹ | < 1e-05 s⁻¹ | –
41 | G9U C10U C34G A53U G63C U65A | – | < 1e-05 s⁻¹ | – | –
42 | G44U U47C A48C U69G | – | < 1e-05 s⁻¹ | < 1e-05 s⁻¹ | –
43 | A33C G38C G51C A64C | – | < 1e-05 s⁻¹ | – | < 1e-05 s⁻¹
44 | A15C U45G U56C C58A C67G C68A | – | 8.64e-05 ± 2.9e-05 s⁻¹ | – | –
45 | U47G A48G G63A | – | < 1e-05 s⁻¹ | – | –
46 | A6G C50G A52U G59U | – | < 1e-05 s⁻¹ | – | –

Row | Variant | self-cleavage kobs at 160 uM GlcN6P (glucosamine-6-phosphate [1]) | self-cleavage kobs at 640 uM GlcN6P (glucosamine-6-phosphate [2]) | self-cleavage kobs at 2500 uM GlcN6P (glucosamine-6-phosphate [3]) | self-cleavage kobs at 10000 uM GlcN6P (glucosamine-6-phosphate [4])
47 | A15U G35U G59A | – | < 1e-05 s⁻¹ | – | –
48 | G29U G35C A52G | – | < 1e-05 s⁻¹ | < 1e-05 s⁻¹ | –
49 | U31G G37U U69G | – | 6.98e-05 ± 2.8e-05 s⁻¹ | 9.82e-05 ± 3e-05 s⁻¹ | –
50 | C11G U47G C50A C70G | – | 0.000245 ± 6.2e-05 s⁻¹ | 0.000139 ± 4e-05 s⁻¹ | 7.52e-05 ± 1.9e-05 s⁻¹
51 | A52C U57C C68G C70G | – | 0.000165 ± 5.4e-05 s⁻¹ | 0.000133 ± 5.6e-05 s⁻¹ | –
52 | G38A G59C G62U | – | < 1e-05 s⁻¹ | – | –
53 | G9C A12G G29A | – | < 1e-05 s⁻¹ | – | –
54 | C58U C67U C68U C71U | – | 0.000646 ± 0.00029 s⁻¹ | – | –
55 | U31G C34G U65A | – | < 1e-05 s⁻¹ | – | –
56 | A14C C58A C67A C68G | – | 5.61e-05 ± 2.2e-05 s⁻¹ | 4.77e-05 ± 1.6e-05 s⁻¹ | –
57 | C34U G43U G59A G62C C67A | – | < 1e-05 s⁻¹ | < 1e-05 s⁻¹ | –
58 | C10G A15G A39U G60C C68A | – | < 1e-05 s⁻¹ | < 1e-05 s⁻¹ | –
59 | C10U A15G G37A G38C A53U | – | < 1e-05 s⁻¹ | – | –
60 | A39C C58G C67G C71G | – | < 1e-05 s⁻¹ | – | –
61 | G9C A15G G38C G60A | – | < 1e-05 s⁻¹ | < 1e-05 s⁻¹ | –
62 | A6C U31G G40U G43A C50G G60C | – | < 1e-05 s⁻¹ | – | < 1e-05 s⁻¹
63 | A14C A15G U69A | – | 9.09e-05 ± 2.4e-05 s⁻¹ | 0.000115 ± 2.7e-05 s⁻¹ | –
64 | G7A A12C A42C U49C | – | < 1e-05 s⁻¹ | – | –
65 | A15G C16G U46G | – | 9.78e-05 ± 2.8e-05 s⁻¹ | 0.000248 ± 9.3e-05 s⁻¹ | –
66 | U30C C34U U57A | – | < 1e-05 s⁻¹ | – | –
67 | U45G U56C | – | 0.000204 ± 4.5e-05 s⁻¹ | 0.000272 ± 7.1e-05 s⁻¹ | 0.000987 ± 0.00015 s⁻¹
